Reference: the DeepSol protein solubility set

Assay: soluble on expression in E. coli; label from the status in PepcDB or PDB records

| Sequence | soluble on expression in E. coli |
| --- | --- |
| RATPRMEDLASTDLSTRATGSINAVYFTNWGIYGRNFQPADLQASKILHVLYSFMNLRVDGTVYSGDTYADLEKHYSDDSWNDIGTNAYGCVKQLYKLKKANRSLKIMLSIGGWTWSTNFPAAASTEATRATFAKTAVEFMKDWGFDGIDVDWEYPASETDANNMVLLLQRVRQELDSYSATYANGYHFQLSIAAPAGPSHYNVLKLAQLGSVLDNINLMAYDYAGSWDSVSGHQTNLYPSTSNPSSTPFSTKAAVDAYIAAGVPASKIILGMPIYGRAFVGTDGPGKPYSTIGEGSWESGIWDYKVLPKAGATVITDSAAGATYSYDSSSRTMISYDTPDMVRTKVSYAKGLGLGGSMFWEASADKTGSDSLIGTALSSMGSHDSTQNCLSYPNSKFDNIKNSLS | soluble |
| REEVRVVVGAERTELLLPLLRDKRVALVANATSVVGTEREHLLDNLLRQGVNVVKILGPEHGFRGDADAGATVKDERDVRTGIPIVSLYGKNKKPTPRMLADVDVLLFDMQDVGTRFFTYISTLHYVMEACAEEQKKLIVTDRPNPNDYVDGPILQDDCRSFVGVDPLPILHGLTIGELANMINGEGWLGKKEMKCDLTVVPMSGWKHGQEYALPVKPSPNLPTANAIAWYPSLCLFEATIMSVGRGTDFPFEVLGYPKKVFGSFVFVPRPIRGMDSNPLYKGRHCYGVDLRGEKAPRGLSLQLLIRYYQTARREGIKFVNRKQMFNLLAGTKELAQQIEKGRTEEQIRASWQSDLDKYHKLRKKYLLY | not soluble |
| RHAIAETLSQEIKQELKDLYMDKADFKVVFTKGKFNREGNETVAFHISTNPGEDFKPLVKVASGGELSRLMLAIKSAFSRREDKTSIVFDEVDTGVSGRVAQAIAQKIYKIGNHGQVLAISHIPQVIAISDYQYFIEKQSSKATTVSTVRLLNQEERIEEIAKML | not soluble |
| RIRKEPPVYAAGSLEEQWYLEIVDKGSVSCPTCQAVGRKTIEGLKKHMENCKQEMFTCHHCGKQLRSLAGMKYHVMANHNSLP | soluble |
| RIVEIPVCYGGEFGPDLEEVAKINQLSPEEVIDIHTNGEYVVYMLGFAPGFPFLGGMSKRIAAPRKSSPRPSIPAGSVGIAGLQTGVYPISTPGGWQLIGKTPLALFRPQENPPTLLRAGDIVKFVRISEKDYHAYKEESN | soluble |
| RMLTDRRVHDADFLTDELGLTSLGLVNHQHHHSMKKQALNLNGGYHTHNDRTSSQAMKRV | not soluble |
| RMTVWQLDLQKRLVQVDGDVARLIGLSHVPPELPVAVFENYVDPEDLPLLRAAEAAALRGEPMQVELRLVLESGGRRWLRLMGEPRPDA | not soluble |
| RNHWVSQYSSVKQEKNEKWQRHWREILGEDTEDLPPYRYDYGLYSGIWQANETLREQCFAALTHGNSVYERVKAFQKMTTHEHNTDDQILLSKLAQLENEIIQALEQHSQKNVSIETGSGTLCKESKHNVYRHENGPTEEQLYNSINLQHDLDRELRNIIYDRLGDDGLDEYFFLRAPLEELTENETAINWMLWGLVSDHFDVDPYQTALELNLMNAEPRWGQDERFVVVTTAA | not soluble |
| RPQGLHLELETRLQKMYGIRQVIVVEATEPDDEESIKQAIGSAAAHYLETSLSAQDHIGISSWSSTIRAMVSHMHPQPGKQSAQEVVQLLGGVGNKGAFEATLLTQRLATLLNCPAFLLPSQSIEQSVESKQRIVEMEEVKEVLHRFDSITLAIVGIGELEPSQLLRNSGNYYTEDMLRVLAERGAVGDICLRYFDAQGKPVLEEDEEFVVSMGLGKLRSINRVLGLAGGVRKVQAIKGALLGGYLDVLITDVGTARGLGG | soluble |
| RPSINFYESLIDSSSLDGKLLSPRRSSGWVRVDTNMWGNPFFGFRSDLVSGQFRPDYPFRFSSNLYLSKEVKEIVLNTIASTPRNGVGRYKYSDLGFILLQQIVEKVSGKSLNVFVEERIFRPIGAGSLGYLPLDKYSVSRIAPAQNDKFLRKSIVRGTVDDE | not soluble |
| RQTDFTRPDGSRSTVALLQGNIDQTLKWREDQVIPTIQKYYEQVGKTTADIVILPETAIPVMRQNLPENILAKFAEQAQNNGSALAVGISQYTSDGNGYENAVINLTGYQENNQDGIPYYAKNHLVPFGEYKPLPFLTTPLYKMMDMPLSDFRKGGGKQSALLMKNQKIAFNICYEDGFGDELIAAAKDATLLANASNMAWYGKSNAMYQHLQQSQARAMELGRYMVRATNTGATAIISPKGNIIAQAQPDTETVLEGHIKGYVGETPYMKTG | not soluble |
| RRNLGGRLYLVTYGKAAALHLDPVEKKPLYHFHPGEGILSVGTVGCNLFCAFCQNWQISQFREFRVSPEGRLDRPIGEDWPPKRLVAEAEALGVRLLAYTYNEPAVWIEYAHDTARLAKARGMKNVFVTSGFETKEAWDYIRPHLDAANVDLKGFTEKFYREVCGARLKPVLESLGHLVASGVWVEVTTLLLEGYNDSDEEVRAMARFLKGLSPDIPWHLTAAHPDYRMLDLRSTRHATLVRAHAIAK | not soluble |
| RRRAKGLRREEVAQLAGISATWLTWLEQGRSESVSAQTLSRLAAALQLSGAETDYLFDLAGLKNPQEKRADANPQAREILEEMLPRIDMPAYVLDRLWRAVAWNRAAEELFC | not soluble |
| RRSRKLERKKIVLGVTGSIAAVETVKLARELVRRGADVTAVMSRAARKIIHPYALEFATGKRVVTEITGSIEHVNLLGEYGDADLFLIAPCTANTISKIAQGIDDTPVTTFATTALGSGKPIIIVPAMHEAMMRNKAVLENIQRLIDMGIEFVQPRIEEGKAKFPSTETICLHVERELYPKEMKGKRVV | not soluble |
| RRVVVTGLGMVTPLGRGVETTWRRLIDGECGIRGLTLDDLKMKSFDEETKLYTFDQLSSKVAAFVPYGSNPGEFDEALWLNSKAVANFIGYAVCAADEALRDAEWLPTEEEEKERTGVSIGGGIGSICDIVEAAQLICEKRLRRLSPFFIPKILVNMASGHVSMKYGFQGPNHAAVTACATGAHSIGDATRMIQFGDADVMVAGGTESSIDALSVAGFSRSRALSTKFNSSPQEASRPFDCDRDGFVIGEGSGVIVLEEYEHAKRRGAKIYAELCGYGMSGDAHHITQPPEDGKGAVLAMTRALRQSGLCPNQIDYVNAHATSTPIGDAVEARAIKTVFSEHATSGTLAFSSTKGATGHLLGAAGAVEAIFSILAIHHGVAPMTLNVKNPDPIFDKRFMPLTTSKKMLVRTAMSNSFGFGGTNASLLFASI | soluble |
| RSLTMTLEELMNAPAPASRWVLERDCAETGLDPADIRAEMLRRIGEMRSSVERGLQSDARSITGMVGWNAKGLWDAPDVLGAPLLKRVQAYAMAVNEENARMGRIVAAPTAGSAGTIPGALLGVADHLGLSDEQLVDPMILAAGVGKAISKRMFISGAAGGCQAE | not soluble |
| RSRGNFPIYNNTRVTYFPTGETFFDSLKEQLFLAKKYIFLEFFIIAEGQMWGEILSILEKKVSEGVEVRVLFDGMNELSTLSSDYAKRLEQIGIKAKSFLPISPFISTYYNYRDHRKIVVIDGEVSFTGGINLADEYINEVERFGHWKDAGLMLEGEATDSFLILFLQMWSITEKELIIDPYLSDHSLKLPSDGYVIPYGDSPLDTDKIGKNV | not soluble |
| RTAAELMGRCSSKGLGISDIMFINERASRSEEEIREGLLHIWSVMEACVETSLKREGVLPGGLKVRRRSPDWLERLLKEDKDRNDPKYWQEWVNLIALAVNEENASGGRVVTAPTNGAAGIIPAVLYYALNYAPGMDKASQADKDDVVVKFLLAAGAVGVLYKEQASISGAEVGCQGEVGSASSMAAAGLAEVMGGSPGQVENAAEIAMEHNLGLTCDPIGGLVQIPCIERNAIAAAKAINAAKMALWGDGTHRVSLDEVIVTMRETGKDMSSKYKETAMGGLAVN | not soluble |
| RTGRELLDMCRASGHSVAGLMMRNELTWRGAAEIEQGLDRIWEVMQECVARGCGIGHPEADGDLPGPLKVRRRAPELYRALTQRAERTLSDPLSVMDWVNLYAMAVNEENAAGGRVVTAPTNGAAGIIPAVLHYYDRFVPAANRAGVHDFLLTAAAIGLLYKYNASLSGAEVGCQGEVGVACSMAAGALAAVQGGSVEQVENAAEIGMEHNLGLTCDPVGGLVQIPCIERNAMASVKAVNAARMALRGDGHHYVSLDSVIKTMRETGADMKTKYKETARGGLAVN | not soluble |
| RYNGLTLRSVFQPIFDKQHQVVGAEALVRIFTQHHTQIRPDLFFHSETFADDDKLNVERLSRAIHIRNFSLSPYRDTRLFLNVLPVAGEQFAYCDISSTLLATRLAELNIPHHRVVMELVEIESGDEGMLQMATEKLVANGFQIAIDDFGCKASTPERVAMLRPNIIKLDRQLLLDFMAGDCCGLLAGVQLAQKTGAHTVVEGIETAEQLAAMQKLDINMYQGYYLALPEGIAQTAKVANAN | not soluble |
| SAAAAFDPLGPLPVYLVSVRLGIYEDEHHRVWIVANVETSHSSHGNRRRTHVTVHLWKLIPQQVIPFNPLNYDFLPTTWKLESRNIYWATDGTHWRLLDHSQLGDTEQLILMLVLG | soluble |
| SAAFPQWTRVDDKRFELALLQIPEGSPNFIENIAYYLQKPVKEVEYYYCALVHDIERIESGKYVLPKYPEDDYVKLTEAGESKGNGKKTGIPWSEEEQRLFLEGLNKFGKGDWKNISRYCVKSRTSTQVASHAQKYFARQKQESTNTKRPSIHDMTLGVAVNVPGSNLESTGQQPHFGDQIPSNQYYPSQENFRGFDQRW | soluble |
| SAAPVDLELKKAFTELQAKVIDTQQKVKLADIQIEQLNRTKKHAHLTDTEIMTLVDETNMYEGVGRMFILQSKEAIHSQLLEKQKIAEEKIKELEQKKSYLERSVKEAEDNIREMLMARRAQ | soluble |
| SAEGSRGGPTCSGVGGRQDPVSGSGGCNFPEYELPELNTRAFHVGAFGELWRGRLRGAGDLSLREPPASALPGSQAADSDREDAAVARDLDCSLEAAAELRAVCGLDKLKCLEDGEDPEVIPENTDLVTLGVRKRFLEHREETITIDRACRQETFVYEMESHAIGKKPENSADMIEEGELILSVNILYPVIFHKHKEHKPYQTMLVLGSQKLTQLRDSIRCVSDLQIGGEFSNTPDQAPEHISKDLYKSAFFF | soluble |
| SAGLGANSDVMVKLDDGHLNNSLRSPVQAGVYFRGHIKGGMRPGKKVLVMGIVDHNPKSFAISLTCGDSEDPPADVAIELKVVFTNQQVFRNSCISGESDEENLAFPYFPFVPDQPFRMEIFCQQPCFRVLVDGHHLFDFYHRIQTLSAIDSIKISGDLQITKLG | soluble |
| SAMAQKEEGHEAAAAEAKKETDLAHVDQVETFVGKEKYYVVKGTDKKGTALYVWVPADKKAKILSKEAKEGISEDKAAKIIKDEGLVSKQKEVHLAREGNVLLWEVTYLDKEGQYSLSYVDFTTGKILKNITP | soluble |
| SAPAQEHPEATVLFSDIVGFTEIASRSSPLEVCSLLDELYQRFDAAIEEYPQLYKVETIGDAYMVVCNVTVPCDDHADVLLEFALRMHEEASRVASSLGEPVRIRVGMHSGPVVAGVVGRKMPRFCLFGDTVNTASRMESHGEAGQIHISEACYCCLRSKERFEIRERGNITVKGKGTMRTYLLSPLERT | soluble |
| SAPGWLKEMRGEHIPETEEYGISSFSFLARRPFHPEKFYHFLHDTEKFGKLIRSKGYFWLATRPQFSGQWNQAGGIAHYGFAAMFWKSVPKKDWPIDEESLNAIEKQWVEPFGDMRQELVFIGQQLDQGAMTNALNECLL | not soluble |
